Source: publication PMC3003642, “DPI-ELISA: a fast and versatile method to specify the binding of plant transcription factors to DNA in vitro”
Where a chain is given by its changes, count along the chain named.

Assays:
AtbZIP63 = target: T1, AtbZIP63 (Arabidopsis thaliana, UniProt B9DGI8 1-314); assay: EMSA; DPI-ELISA: 2 pmol ds-bio DNA per well, crude E. coli extract in protein extraction buffer (HEPES, 100 mM salt per Additional file 1), 1 h, PBS-T washes pH 7.5; conditions: protein: recombinant; tags: C-terminal V5:His; chain copies: 2; label: 5' biotin (DPI-ELISA); 33P (EMSA)
T1 sequence: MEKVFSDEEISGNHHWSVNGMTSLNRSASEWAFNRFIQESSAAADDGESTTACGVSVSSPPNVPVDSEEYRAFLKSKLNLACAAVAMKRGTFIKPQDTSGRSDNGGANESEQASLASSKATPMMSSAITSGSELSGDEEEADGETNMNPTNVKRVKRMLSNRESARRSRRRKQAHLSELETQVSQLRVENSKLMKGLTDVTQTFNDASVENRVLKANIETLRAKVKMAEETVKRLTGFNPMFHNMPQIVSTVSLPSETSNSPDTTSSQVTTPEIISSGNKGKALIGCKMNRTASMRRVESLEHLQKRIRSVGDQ

AtBPC2 [1] = target: T2, AtBPC2 (Arabidopsis thaliana, UniProt Q9LDE2 1-279); assay: DPI-ELISA; DPI-ELISA: 2 pmol ds-bio DNA per well, crude E. coli extract in protein extraction buffer (HEPES, 100 mM salt per Additional file 1), 1 h, PBS-T washes pH 7.5; conditions: protein: recombinant; tags: N-terminal His (pET32b-GW); label: 5' biotin
T2 sequence: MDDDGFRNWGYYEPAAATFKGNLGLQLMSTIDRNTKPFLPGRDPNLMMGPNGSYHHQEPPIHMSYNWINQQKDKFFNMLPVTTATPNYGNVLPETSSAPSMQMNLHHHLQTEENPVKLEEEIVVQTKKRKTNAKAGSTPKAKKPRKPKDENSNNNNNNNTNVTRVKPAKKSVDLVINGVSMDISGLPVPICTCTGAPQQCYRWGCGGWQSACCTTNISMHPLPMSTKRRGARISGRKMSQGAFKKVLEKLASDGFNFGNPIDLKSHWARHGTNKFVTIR

AtWRKY75DBD = AtWRKY75DBD (Arabidopsis thaliana, UniProt Q9FYA2 58-145); assay: DPI-ELISA; up to 100 ug crude extract (data not shown); DPI-ELISA: 2 pmol ds-bio DNA per well, crude E. coli extract in protein extraction buffer (HEPES, 100 mM salt per Additional file 1), 1 h, PBS-T washes pH 7.5; conditions: protein: recombinant; tags: C-terminal V5:His; label: 5' biotin (DPI-ELISA); 33P (EMSA)
AtWRKY50DBD = AtWRKY50DBD (Arabidopsis thaliana, UniProt Q8VWQ5 99-173); assay: DPI-ELISA; not corrected for protein concentration in extract; DPI-ELISA: 2 pmol ds-bio DNA per well, crude E. coli extract in protein extraction buffer (HEPES, 100 mM salt per Additional file 1), 1 h, PBS-T washes pH 7.5; conditions: protein: recombinant; tags: C-terminal V5:His; label: 5' biotin (DPI-ELISA); 33P (EMSA)
AtWRKY33cDBD [2] = target: T3, AtWRKY33cDBD (Arabidopsis thaliana, UniProt Q8S8P5 346-449); assay: DPI-ELISA; DPI-ELISA: 2 pmol ds-bio DNA per well, crude E. coli extract in protein extraction buffer (HEPES, 100 mM salt per Additional file 1), 1 h, PBS-T washes pH 7.5; conditions: protein: recombinant; tags: C-terminal V5:His; label: 5' biotin (DPI-ELISA); 33P (EMSA)
AtWRKY33cDBD [3] = target: T3, AtWRKY33cDBD; assay: DPI-ELISA; also at higher protein amounts (data not shown); DPI-ELISA: 2 pmol ds-bio DNA per well, crude E. coli extract in protein extraction buffer (HEPES, 100 mM salt per Additional file 1), 1 h, PBS-T washes pH 7.5; conditions: protein: recombinant; tags: C-terminal V5:His; label: 5' biotin (DPI-ELISA); 33P (EMSA)
AtWRKY11DBD [4] = target: T4, AtWRKY11DBD (Arabidopsis thaliana, UniProt Q9SV15 229-325); assay: EMSA; DPI-ELISA: 2 pmol ds-bio DNA per well, crude E. coli extract in protein extraction buffer (HEPES, 100 mM salt per Additional file 1), 1 h, PBS-T washes pH 7.5; conditions: protein: recombinant; tags: C-terminal V5:His; label: 5' biotin (DPI-ELISA); 33P (EMSA)
AtWRKY11DBD [5] = target: T4, AtWRKY11DBD; assay: competition DPI-ELISA; up to 50 pmol competitor; DPI-ELISA: 2 pmol ds-bio DNA per well, crude E. coli extract in protein extraction buffer (HEPES, 100 mM salt per Additional file 1), 1 h, PBS-T washes pH 7.5; conditions: protein: recombinant; tags: C-terminal V5:His
AtBPC2 [6] = target: T2, AtBPC2; assay: competition DPI-ELISA; 1000 pmol DNA reduced binding irrespective of sequence; DPI-ELISA: 2 pmol ds-bio DNA per well, crude E. coli extract in protein extraction buffer (HEPES, 100 mM salt per Additional file 1), 1 h, PBS-T washes pH 7.5; conditions: protein: recombinant; tags: N-terminal His (pET32b-GW)
AtBPC2 [7] = target: T2, AtBPC2; assay: competition DPI-ELISA; 100-1000 pmol competitor vs 2 pmol GABio; DPI-ELISA: 2 pmol ds-bio DNA per well, crude E. coli extract in protein extraction buffer (HEPES, 100 mM salt per Additional file 1), 1 h, PBS-T washes pH 7.5; conditions: protein: recombinant; tags: N-terminal His (pET32b-GW)

T3 sequence (Q8S8P5 346-449): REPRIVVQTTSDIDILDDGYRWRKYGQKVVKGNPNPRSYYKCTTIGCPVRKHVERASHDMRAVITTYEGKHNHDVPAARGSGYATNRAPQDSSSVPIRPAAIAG
T4 sequence (Q9SV15 229-325): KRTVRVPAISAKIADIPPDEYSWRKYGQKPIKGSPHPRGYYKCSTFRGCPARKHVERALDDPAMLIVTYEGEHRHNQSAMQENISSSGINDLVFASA
Sequence of AtWRKY75DBD (Q9FYA2 58-145): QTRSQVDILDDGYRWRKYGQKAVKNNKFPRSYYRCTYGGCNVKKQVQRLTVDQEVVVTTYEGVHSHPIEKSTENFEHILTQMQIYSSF
Sequence of AtWRKY50DBD (Q8VWQ5 99-173): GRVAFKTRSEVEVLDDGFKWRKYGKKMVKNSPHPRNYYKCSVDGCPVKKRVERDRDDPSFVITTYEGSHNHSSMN

B1: Cm-probe (dsDNA)
DNA 1: AATTCTCCCTTATCTGCAGTCAGCATCCGG
DNA 2: CCGGATGCTGACTGCAGATAAGGGAGAATT
binding result (AtbZIP63): no binding

B2: GAm-probe (GAmBio) (dsDNA)
DNA 1: TAATGCAGCAAGTAAGACTACGACTGTTTC
DNA 2: GAAACAGTCGTAGTCTTACTTGCTGCATTA
binding result (AtBPC2 [1]): no binding

B3: W2-probe (W2Bio) (dsDNA)
DNA 1: AAATTATTCAGCCATCAAAAGTTGACCAATAAT
DNA 2: ATTATTGGTCAACTTTTGATGGCTGAATAATTT
binding result (AtWRKY75DBD): no binding | binding signal (AtWRKY50DBD): > 2 fold absorbance vs AtWRKY33cDBD | binding result (AtWRKY33cDBD [2]): binds

B4: W2m-probe (W2mBio) (dsDNA)
DNA 1: B3 DNA 1 with G24A, A25C
DNA 2: B3 DNA 2 with T9G, C10T
binding result (AtWRKY75DBD): no binding | binding result (AtWRKY33cDBD [3]): no binding | binding result (AtWRKY11DBD [4]): no binding

B5: W2m-probe, non-biotinylated competitor (dsDNA)
DNA 1: B3 DNA 1 with G24A, A25C
DNA 2: B3 DNA 2 with T9G, C10T
binding result (AtWRKY11DBD [5]): no binding

B6: C-probe (C-box) (dsDNA)
DNA 1: B1 DNA 1 with C17A, A18C
DNA 2: B1 DNA 2 with T13G, G14T
binding result (AtbZIP63): binds

B7: GAm-probe, non-biotinylated competitor (dsDNA)
DNA 1: B2 DNA 1
DNA 2: B2 DNA 2
binding result (AtBPC2 [6]): no binding

B8: GA-probe (GABio) (dsDNA)
DNA 1: TAAAGGAGAAAGAAAGAGAAAGAGAGTTTC
DNA 2: GAAACTCTCTTTCTCTTTCTTTCTCCTTTA
binding result (AtBPC2 [1]): binds

B9: GA-probe, non-biotinylated competitor (dsDNA)
DNA 1: B8 DNA 1
DNA 2: B8 DNA 2
binding result (AtBPC2 [7]): binds
